Measurements: US10577428B2, “Anti-factor XI monoclonal antibodies and methods of use thereof” (Oregon Health & Science University, priority 2007, dated 2020)
“Also recorded” adds a separate entry of the source.

Legend:
FXI [1] = test: Pilot experiment: FXI:Ag, FXI inhibitor and FXI procoagulant activity after aXIMab in a single baboon; type: in vivo
Procedure: (§1) The maximum achievable prolongation of the aPTT was about 2.5 fold. FXI:Ag was measured by ELISA using goat anti-human FXI polyclonal capture and detection (horseradish peroxidase conjugated [HRP]) antibodies (Affinity Biologicals, Hamilton, Ontario), which also recognized baboon FXI and its complex with aXIMab. A standard curve was constructed with serial dilutions of NBP, and FXI concentrations were determined in percentage of NBP. Western blots for FXI were performed by size fractionation of 1 μl samples of plasma under non-reducing conditions on 7.5% polyacrylamide-SDS gels, followed by transfer to PVDF membranes. Detection was with a goat-anti-human FXI polyclonal antibody conjugated to HRP and chemiluminescence.

baboons (Papio anubis) [2] = test: Thrombosis model, collagen coated 4 mm i.d. vascular grafts in AV shunt: platelet and fibrin deposition; type: in vivo, baboon (Papio anubis)
Procedure: A total of 39 non-terminal studies were performed on 17 normal juvenile male baboons (Papio anubis) weighing 9-11 kg. Experiments were conducted on non-anticoagulated awake animals that had chronic exteriorized arterio-venous (AV) shunts previously placed between the femoral artery and vein, as described elsewhere (Hanson et al. (1993) J. Clin. Invest. 92:2003-2012). Baseline shunt blood flow exceeded 250 ml/min in all study animals. Anxiety was managed with low dose ketamine (<2 mg/kg/hr). Platelet counts, red cell counts, and hematocrits were measured daily, before and after the experiments.
(§2) Thrombus formation was initiated within the baboon AV shunt by interposing a thrombogenic segment of prosthetic vascular graft (ePTFE, WL Gore & Co., Flagstaff, Ariz.), as previously described (Hanson et al. (1993) J. Clin. Invest. 92:2003-2012). To consistently trigger platelet-dependent thrombus formation, the clinical graft segments were coated with immobilized collagen. Twenty mm long grafts having internal diameters (i.d.) of either 2 or 4 mm were filled with equine type I collagen (1 mg/ml; Nycomed Arzenmittel, Munich, Germany) for 15 min, and then dried overnight under sterile airflow. This method produced a uniform collagen coating within the graft lumen as determined by scanning electron microscopy (FIGS. 1B and 1C). The thrombogenic collagen-coated grafts were then incorporated between segments of silicon rubber tubing, and deployed into the AV shunts (FIG. 1A). The grafts were exposed to blood for up to 60 min. During each experiment, the blood flow rate through the graft was restricted to 100 ml/min by clamping the proximal silicone rubber shunt segment, thereby producing a mean wall shear rate (MWSR) in the 4 mm grafts of 265 s^−1, while in the 2 mm grafts the initial MWSR was 2120 s^−1. Flow rates were continuously monitored using an ultrasonic flow meter (Transonics Systems, Ithaca, N.Y.). […] Baseline blood flow was restored through the permanent shunt after each experiment. In the 2 mm diameter grafts blood flow rates progressively declined due to thrombus formation. The grafts were removed from the AV shunts when the flow rate fell from 100 ml/min to below 20 ml/min, signaling imminent occlusion. The time from initiation of blood flow to graft removal (<20 ml/min blood flow) was taken as the occlusion time.
For imaging of the platelet deposition, autologous baboon platelets were labeled with 1 mCi of ^111In-oxine as previously described (Hanson et al. (1993) J. Clin. Invest. 92:2003-2012). Labeled platelets were infused and allowed to circulate for at least 1 h before studies were performed. Accumulation of labeled platelets onto thrombogenic grafts were measured in 5-min intervals using a gamma scintillation camera. Homologous ^125I-labeled baboon fibrinogen (4 μCi, >90% clottable) was infused 10 min before each study, and incorporation of the labeled fibrin within the thrombus was assessed using a gamma counter 30 days later to allow the ^111In to decay. The radioactivity deposited (cpm) was divided by the clottable fibrin(ogen) radioactivity of samples taken at the time of the original study (cpm/mg).

baboons = test: Standard template skin bleeding time test (Surgicutt); type: in vivo, baboon
Procedure: The effects of FXI inhibition and aspirin on primary hemostasis in baboons were assessed using the standard template skin bleeding time test (Surgicutt®, International Technidyne Corp). […] All bleeding time measurements were performed by the same expert technician. For indirect assessment of hemostasis, aPTT and PT measurements were also performed.

baboons (Papio anubis) [3] = test: Vascular graft occlusion studies, collagen coated 2 mm i.d. grafts, high arterial shear; type: in vivo, baboon (Papio anubis); conditions: 2 mm i.d. grafts
Procedure: as §2
Occlusion studies were performed using 10 mm long 2 mm i.d. collagen coated devices which produced high arterial shear rates (2120 s^−1 at 100 ml/min clamped blood flow). Accumulation of labeled platelets onto 2 mm thrombogenic grafts were measured in 3-min intervals using a gamma scintillation camera. Flow was maintained at 100 ml/min by proximal clamping for as long as possible, and then allowed to decrease as the propagating thrombus began to occlude the device. A final blood flow rate of 20 ml/min was used as a cutoff for occlusion, since a fully occlusive thrombi and lack of blood flow through the device could lead to occlusion of the shunt and a significant loss of blood for the animals.
Since aspirin is a less antihemostatic agent than heparin, and it is often included in the standard treatment of arterial-type platelet-dependent thrombosis, ASA was used in the current studies with the occlusion-prone 2 mm i.d. grafts as a long-acting positive control. ASA (32 mg/kg) was administered orally 2-4 h before each thrombosis experiment, as described previously (Hanson et al. (1985) J. Clin. Invest. 75:1591-1599). Four weeks were allowed for washout of each aXIMab and ASA before performing new experiments in the same animal.

FXI [4] = test: FXI procoagulant activity, aPTT and PT after single i.v. bolus in baboons; type: in vivo, baboon
Procedure: as §1
The anticoagulant effect (aPTT) was monitored daily, and thrombosis experiments were performed while the FXI procoagulant activity in the circulating blood was reduced by ≥99%, as assessed by comparing the clotting times to a standard curve generated with FXI deficient human plasma (George King Bio-Medical).

B1: aXIMab: neutralizing murine IgG/kappa anti-human FXI monoclonal antibody from hybridoma 1A6; binds A3 domain; VH SEQ ID NO:3, VL SEQ ID NO:5 (antibody, listed as Mus musculus, V domains shown)
VH: QVTLKESGPGILKPSQTLSLTCSFSGFSLSTSGMGVGWIRQPSGKGLEWLAHIWWDDDKYYNPSLKSQLTISKDTSRNQVFLKITSVDAADTATYYCARKRSSVVAHYYAMDYWGQGTSVTVSS
VL: DIVLTQSPASLAVSLGQRATISCKASQSVDYDGDSYLNWYQQKPGQPPKLLIYAASNLESGIPARFSGSGSGTDFTLNIHPVEEEDAATYYCQQSNGDPWTFGGGTKLEIK
- FXI:Ag levels (FXI [1]; 1 h after 2 mg/kg, single baboon, baseline 110%): 40 % of NBP levels
- FXI activity (FXI [1]; 1 h after 2 mg/kg, single baboon, baseline 125%): < 1%
- Maximum circulating FXI inhibitor levels (Bethesda assay) (FXI [1]; 1 h post infusion, 2 mg/kg, single baboon): 72 Bethesda units [BU]
- circulating FXI inhibitor levels (Bethesda assay) (FXI [1]; by day 15, 2 mg/kg, single baboon): < 0.6 BU
- FXI:Ag levels (FXI [1]; day 8 post-infusion, 2 mg/kg, single baboon): 300 % of control
- FXI activity (FXI [1]; day 27, 2 mg/kg, single baboon): 136%
- Plasma FXI antigen (FXI [1]; day 27, 2 mg/kg, single baboon): 130%
- total FXI:Ag levels (FXI [1]; following the disappearance of FXI activity): temporarily increased several-fold above baseline
- FXI activity inhibited (FXI [1]; for 10 days after administration, 2 mg/kg, single baboon): > 99%
- free FXI:Ag (FXI [1]; for over a week following injection): < 1%
- maximum achievable prolongation of the aPTT (FXI [1]; in vivo): about 2.5 fold
- Plasma FXI antigen (FXI [1]; through day 15, 2 mg/kg, single baboon): above 200 % of control
- End-point fibrin deposition reduced compared with controls (baboons (Papio anubis) [2]; 4 mm graft): 81%
- End-point fibrin deposition (baboons (Papio anubis) [2]; 4 mm graft, control 1.18±0.19): 0.23 ± 0.07 mg
- platelet accumulation (baboons (Papio anubis) [2]; 10 min after graft exposure, 4 mm graft, control 0.23±0.03): 0.13±0.03 ×10^9 platelets
- Graft platelet accumulation lower than in vehicle controls (baboons (Papio anubis) [2]; 60 min, 4 mm graft): 63%
- Graft platelet accumulation (baboons (Papio anubis) [2]; 60 min, 4 mm graft, n=6, control 3.68±0.52): 1.38±0.26 ×10^9 platelets
- Systemic platelet counts, change following thrombosis experiments (baboons (Papio anubis) [2]; in vivo): did not change significantly
- Systemic platelet counts (baboons (Papio anubis) [2]; prior to thrombosis studies, control 337±31): 341±27 ×10^3/μl
- effect on bleeding time / hemostasis (baboons; FIG. 6, compared with no treatment controls): did not demonstrably impair hemostasis
- standard template bleeding time (baboons; vehicle-treated controls 3.4±0.2 min): 3.5 ± 0.3 min
- initial platelet accumulation rate versus vehicle (baboons (Papio anubis) [3]): similar
- thrombus stability (baboons (Papio anubis) [3]; 2120 s^-1): unstable; also recorded: profoundly reduced
- Number occluded (baboons (Papio anubis) [3]; 60 min): 0/5
- graft occlusion (baboons (Papio anubis) [3]; 60 min-long studies (FIG. 5)): did not occlude the grafts
- time after initiation of blood perfusion when growth rate of platelet thrombus was reduced (baboons (Papio anubis) [3]; all treated animals): 12 to 15 min
- Embolic events per experiment (baboons (Papio anubis) [3]; mean ± SEM): 6.6 ± 0.9
- Fibrin deposition (baboons (Papio anubis) [3]; mean ± SEM, control 0.30 ± 0.04): 0.18 ± 0.02 mg
- grafts remained patent (baboons (Papio anubis) [3]; over 60 min): 5 of 5
- day by which all clotting times normalized (FXI [4]; 2 mg/kg i.v. bolus, one-stage clotting assay): ≤ 11 days
- FXI procoagulant activity inhibited (FXI [4]; 1 hr after infusion, 2 mg/kg i.v. bolus, 4 baboons, range 98.8-99.5%): 99.0%
- PT (FXI [4]; after aXIMab administration, n=11, PBS vehicle 9.0±0.1 sec): 9.1 ± 0.1 s
- aPTT (FXI [4]; after aXIMab administration, control 30.5±0.7 sec): 65.6 ± 2.0 s
- PT, differences between groups (FXI [4]; all baboons): no differences
